How the values were obtained:
[1] = system: biotinylated CDK2 substrate peptide (Biotin-Ahx-His-His-Ala-Ser-Pro-Arg-Lys)
CDK1 = biological target: T1, CDK1 (Homo sapiens, UniProt P06493); experiment: Determination of CDK1 kinase activity using chemical luminescence with the ATP derivative as phosphate-group donor (S/N evaluation); format: biochemical; details: CDK1 immunoprecipitated from K562 solubilized sample; biotinylated CDK2 substrate peptide; anti-DNP antibody detection; compared to the S/N ratio of Comparative Example 1 (ATPγS as phosphate-group donor)
T1 construct: a reaction was caused to occur between CDK1 and the anti-CDK1 antibody; endogenous in cells; host or cells: K562 cells (lysate, immunoprecipitated with anti-CDK1 antibody from Operon on protein A Sepharose beads)
Experimental: In a well of a 96-well filter plate (hydrophilic PVDF membrane manufactured by Millipore Corp.), 70 μL of an immunoprecipitation buffer (a buffer containing 0.1 mass % Nonidet NP-40 and 50 mM tris hydrochloride (pH7.4)) was added. Then, with respect to the immunoprecipitation buffer in the well, 20 μL of an antibody solution containing 16 μg of an anti-CDK1 antibody (manufactured by Operon Co., ltd.), and 30 μL of 20 v/v % Sepharose beads (manufactured by GE Healthcare) coated with protein A were added. […]
Next, with respect to the beads that had been cleaned, 50 μL of the CDK substrate solution (composition: 100 ng/μL biotinylated CDK2 substrate peptide (manufactured by Enzo Inc.), the compound 2 represented by formula (x2), 54 mM tris hydrochloride (pH7.4), and 20 mM magnesium chloride) was added to obtain a mixture. The concentration of the compound 2 was a concentration that provided an absorbance of 2 at 362 nm. This absorbance was measured in a manner similar to that in Example 1 (2). […]

T1 sequence (P06493 whole entry): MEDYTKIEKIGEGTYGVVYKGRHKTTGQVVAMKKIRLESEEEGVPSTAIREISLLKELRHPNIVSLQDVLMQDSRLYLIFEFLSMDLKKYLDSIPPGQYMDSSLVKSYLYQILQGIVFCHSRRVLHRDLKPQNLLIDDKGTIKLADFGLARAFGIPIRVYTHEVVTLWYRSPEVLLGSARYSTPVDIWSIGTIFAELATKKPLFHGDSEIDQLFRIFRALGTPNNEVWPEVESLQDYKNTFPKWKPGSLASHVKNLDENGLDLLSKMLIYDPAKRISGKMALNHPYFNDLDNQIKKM
T1 sequence (P14635 whole entry partner): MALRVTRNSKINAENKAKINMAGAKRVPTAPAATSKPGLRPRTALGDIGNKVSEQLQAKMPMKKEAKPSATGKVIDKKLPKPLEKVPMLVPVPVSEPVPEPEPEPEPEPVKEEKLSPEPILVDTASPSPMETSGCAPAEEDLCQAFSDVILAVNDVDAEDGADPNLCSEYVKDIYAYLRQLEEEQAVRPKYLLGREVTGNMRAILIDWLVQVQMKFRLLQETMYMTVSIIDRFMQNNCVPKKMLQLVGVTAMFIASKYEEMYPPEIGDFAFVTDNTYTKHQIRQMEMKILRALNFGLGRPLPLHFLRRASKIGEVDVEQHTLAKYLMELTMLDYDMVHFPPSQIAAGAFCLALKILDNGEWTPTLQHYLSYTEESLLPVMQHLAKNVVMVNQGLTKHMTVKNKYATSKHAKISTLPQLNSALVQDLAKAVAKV

Compound | specific luminescence intensity based on CDK2 activity (ATPγDNP transphosphorylation, ALP labeled anti-DNP antibody, chemiluminescence) [1] | S/N ratio (luminescence intensity A1/luminescence intensity B) (CDK1)
cyclin-dependent kinase (CDK) 2 | the specific luminescence intensity based on CDK2 activity increases in association with an increase in the CDK2 concentration (increase in the solubilized sample concentration) | –
Nc1ncnc2c1ncn2C1OC(COP(=O)(O)OP(=O)(O)OP(=O)(O)SC2CC(=O)N(CCC(=O)NCCOCCOCCCNC(CCCCNc3ccc([N+](=O)[O-])cc3[N+](=O)[O-])C(=O)O)C2=O)C(O)C1O (centres unmarked) [compound 4] | – | tended to be high

Reference: patent publication US20150276740A1, “METHOD FOR D[…] ACTIVITY” (SYSMEX CORPORATION, priority 2014, published 2015)
